Test results published in PMC12452654.

What was measured:
[1] = target: HtpG from Synechococcus elongatus PCC 7942 (Synechococcus elongatus PCC 7942); test: AUC; sedimentation velocity, 45,000 rpm, 20 °C, 4 µM seHtpG, 40 mM HEPES-KOH pH 7.5, 150 mM KCl, 1 mM β-mercaptoethanol, absorbance at 280 nm
[2] = target: HtpG from Synechococcus elongatus PCC 7942 (Synechococcus elongatus PCC 7942); test: SEC; Superdex 200 16/60, 40 mM HEPES-KOH pH 7.5, 150 mM KCl, 0.5 mM TCEP, 0.5 mL/min; peak at 65 mL, close to the 158 kDa IgG standard

Substance: HtpG from Synechococcus elongatus PCC 7942 (natural protein)
- stoichiometry N [1]: 2
- stoichiometry N [2]: 2
